{"source": "paper PMC8755526", "key": {"[1]": {"molecular_target": "PLK1 Polo-Box domain (Flag- or Myc-tagged) (human)", "test": "co-IP; lysates of cells co-expressing differently tagged PLK1 PBD incubated with increasing amounts of purified GST-Bora, then co-IP"}, "[2]": {"molecular_target": "full-length, wild-type PLK1 (Flag-, Myc- or V5-tagged) (human) (UniProt P53350)", "test": "cross-linking; BS3 (20:1 crosslinker-protein) added to lysates of HEK293T cells for 30 min, quenched; IPs with anti-V5 and anti-Myc; SDS-PAGE and western blot with PLK1- and Bora-specific antibodies"}, "[3]": {"molecular_target": "PLK1-T210E fused to CFP, YFP or mTurquoise 2 (human) (UniProt P53350)", "test": "FRET or BRET; FRET by confocal microscopy of fixed HEK293T cells co-transfected with YFP and mTurquoise constructs; 'FRET and co-localization analyzer' ImageJ plug-in"}, "[4]": {"molecular_target": "endogenous PLK1 of HeLa-PLK1–3xMyc cells (human (endogenous in HeLa)) (UniProt P53350)", "test": "SEC; lysate of HeLa-PLK1–3xMyc cells synchronized in G2 with the CDK1 inhibitor RO3306; Superose 3.2/300, 50 mM Tris pH 7.5, 150 mM NaCl, 20 mM CHAPS, 1 mM DTT, 4 °C; fractions blotted"}}, "data": [{"substance": "PLK1 Polo-Box domain (Flag- or Myc-tagged) (domain or fragment)", "values": [{"measurement": "increase of co-precipitated PBD with purified GST-Bora added (lane 2) against none (lane 1)", "setting": "[1]", "result": 60, "unit": "%"}]}, {"substance": "full-length, wild-type PLK1 (Flag-, Myc- or V5-tagged) (from UniProt P53350 1-603) (enzyme)", "values": [{"measurement": "stoichiometry N", "setting": "[2]", "result": 2}]}, {"substance": "PLK1-T210E fused to CFP, YFP or mTurquoise 2 (from UniProt P53350 1-603) (enzyme)", "values": [{"measurement": "fold decrease of FRET emission against WT PLK1", "setting": "[3]", "result": "6 to 8", "unit": "fold"}]}, {"substance": "endogenous PLK1 of HeLa-PLK1–3xMyc cells (from UniProt P53350 1-603) (enzyme)", "values": [{"measurement": "stoichiometry N", "setting": "[4]", "result": 2}]}]}
